{"source": "paper PMC11032457", "about": "(Proceedings of the National Academy of Sciences of the …, 2024)", "molecules": {"B1": {"name": "TK0683 protein (GLDH) (Thermococcus kodakarensis KOD1) (protein)", "chain": "MRPKVFITRAIPENGIEMLKEHFEVEVWPEEREIPREVLLKKVRDVDALVTMLSERIDSEVFDAAPRLRIVANYAVGYDNIDVEEATRRGIYVTNTPDVLTDATADFAWTLLLATARRLIEADHFTRSGEWKRRGIAWHPRWFLGYDVYGKTIGIVGFGRIGQAVARRARGFGMRILYYSRSRKPEAEKELGAEFRSLEDLLRESDFVVLAVPLTKETQYMINEERLRLMKKTAILVNIARGKVVDTKALMKALKEGWIAGAGLDVYEEEPYYNEELFSLKNVVLAPHIGSATYGAREGMAELVARNLIAFKNGEVPPTLVNKEVVKVRKPGF"}, "B2": {"name": "TK1734 protein (2-PG phosphatase) (Thermococcus kodakarensis KOD1) (protein)", "chain": "MTRKIGIIFDMDGVIYRGSEPINGAKEVIEFLKERKIPFLFLTNNSTRDPAMYREKLLSMGIDVPEDVIVTSGLATRLYMEKHFEPGEVFVIGGKGLLREMERLGWGVVSLEDARKGAWKRIKHVVVGLDPELTYEKLKYGTLAIRNGASFIGTNPDTTYPAEEGLYPGAGAIIAALRASTDREPVIIGKPNEPAYEVVKDKLGDVEELWMVGDRLDTDIAFAKRFGMKAIMVLTGVSTLKDVAESGIKPNLVLPDVGELKRYLEAAL"}, "B3": {"name": "TK0551 protein (GLDH candidate) (Thermococcus kodakarensis KOD1) (protein)", "chain": "MRPRVLVTFKMKSKPVEELKKYADVDFLLYPSVEELAEKIKDYDGLIVSPLNRVPREVIERAERLKVISCHSAGYDHVDVEAATKKGIYVTKVSGVLSEAVAEFAVGLTIALLRKFVYTDKLIRRGEWDSHAKIWSTFKDIETVYGKKVGILGMGAIGKAIARRMKAMGTEILYWSRSRKEDIEAEVGAKYLPLDEVLRESDIVILALPATPETYHIINEERIKLLEGKYLVNIGRGTLVDEKAVVKAIEEGRLKGYATDVFEKEPVTEHPLFKYEWETVLTPHHAGLSKEAMEDMGFQAVMNLLAVLRGEIPKDLVNREVVKVRPPEEVKML"}, "B4": {"name": "TK2301 protein (Thermococcus kodakarensis KOD1) (protein)", "chain": "MTIKAISVDIDGTITYPDRRLHEKALEAIRLAESLGVPVMLVTGNTVQFGEAAAILIGTSGPVVGEDGGALSIKEGKLRKRVYLTNMDEEWILWGELKKRYPEALLSFSMPERKAGLVVLRTVPVKAVRELIKELGLNLIAVDSGFAIHIKKPWINKGTGIEKACEYLGISPKEVAHIGDGENDLDAFGVVGYRVAVAQAPESLKEKADYVTTKPYGEGGAEAIEHILRKFGYLPEEKT"}}, "key": {"TK1094 protein": {"target": "T1, TK1094 protein (Thermococcus kodakarensis, UniProt Q5JE21)", "T1 sequence (Q5JE21 1-399)": "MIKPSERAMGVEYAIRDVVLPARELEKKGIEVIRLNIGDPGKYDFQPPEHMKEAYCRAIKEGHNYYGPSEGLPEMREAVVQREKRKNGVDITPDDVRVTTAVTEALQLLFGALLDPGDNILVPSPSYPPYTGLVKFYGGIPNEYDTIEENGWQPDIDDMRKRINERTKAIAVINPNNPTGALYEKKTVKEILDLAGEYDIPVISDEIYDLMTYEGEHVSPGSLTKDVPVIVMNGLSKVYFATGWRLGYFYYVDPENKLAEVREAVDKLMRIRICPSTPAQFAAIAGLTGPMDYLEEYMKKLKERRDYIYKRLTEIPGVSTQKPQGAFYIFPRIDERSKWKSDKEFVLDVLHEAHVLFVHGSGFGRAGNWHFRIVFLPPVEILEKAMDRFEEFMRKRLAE", "experiment": "glycine formation, HPLC", "type": "biochemical", "conditions": "amino donor; 10 mM glyoxylate; 20 μM PLP; 50 mM HEPES pH 7.5; 80 °C"}, "TK0186 protein": {"target": "T2, TK0186 protein (Thermococcus kodakarensis, UniProt Q5JFM8)", "T2 sequence (Q5JFM8 1-417)": "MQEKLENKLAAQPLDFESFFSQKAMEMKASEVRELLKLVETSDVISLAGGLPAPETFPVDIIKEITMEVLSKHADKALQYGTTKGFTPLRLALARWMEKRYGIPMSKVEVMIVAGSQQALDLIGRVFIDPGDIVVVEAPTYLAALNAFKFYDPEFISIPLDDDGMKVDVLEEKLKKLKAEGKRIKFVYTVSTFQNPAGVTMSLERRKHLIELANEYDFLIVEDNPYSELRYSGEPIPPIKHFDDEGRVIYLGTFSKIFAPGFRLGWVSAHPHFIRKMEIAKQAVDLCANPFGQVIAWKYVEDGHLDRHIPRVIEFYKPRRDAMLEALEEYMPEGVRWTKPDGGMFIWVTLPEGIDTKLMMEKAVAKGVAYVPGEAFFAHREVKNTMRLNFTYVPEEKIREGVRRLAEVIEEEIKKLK", "experiment": "glycine formation, HPLC", "type": "biochemical", "conditions": "amino donor; 10 mM glyoxylate; 20 μM PLP; 50 mM HEPES pH 7.5; 80 °C"}, "purified protein [1]": {"substrate": "C[C@@H](O)C(=O)O", "experiment": "purified protein", "conditions": "oxidation, 10 mM NAD+, 80 °C, 50 mM Tris pH 7.5"}, "purified protein [2]": {"substrate": "O=C(O)C(=O)CO", "experiment": "purified protein", "conditions": "reduction, 0.3 mM NADH, 85 °C, 50 mM Tris pH 7.5"}, "purified protein [3]": {"substrate": "O=C(O)CO", "experiment": "purified protein", "conditions": "oxidation, 10 mM NAD+, 80 °C, 50 mM Tris pH 7.5"}, "purified protein [4]": {"substrate": "O=CC(=O)O", "experiment": "purified protein", "conditions": "reduction, 0.3 mM NADH, 85 °C, 50 mM Tris pH 7.5"}, "purified protein [5]": {"substrate": "O=C(O)COP(=O)(O)O", "experiment": "purified protein", "conditions": "80 °C"}, "purified protein [6]": {"substrate": "CC(=O)C(=O)O", "experiment": "purified protein", "conditions": "reduction, 0.3 mM NADH, 85 °C, 50 mM Tris pH 7.5"}, "purified protein [7]": {"substrate": "CC(C)C(=O)C(=O)O", "experiment": "purified protein", "conditions": "reduction, 0.3 mM NADH, 85 °C, 50 mM Tris pH 7.5"}, "purified protein [8]": {"substrate": "CCCC(=O)C(=O)O", "experiment": "purified protein", "conditions": "reduction, 0.3 mM NADH, 85 °C, 50 mM Tris pH 7.5"}, "purified protein [9]": {"substrate": "CC[C@H](C)C(=O)C(=O)O", "experiment": "purified protein", "conditions": "reduction, 0.3 mM NADH, 85 °C, 50 mM Tris pH 7.5"}, "purified protein [10]": {"substrate": "O=C(CO)[C@H](O)[C@H](O)COP(=O)(O)O", "experiment": "purified protein", "conditions": "80 °C, 50 mM MES-NaOH pH 6.5, 10 mM MgCl2"}, "purified protein [11]": {"substrate": "O=C(COP(=O)(O)O)[C@H](O)[C@H](O)COP(=O)(O)O", "experiment": "purified protein", "conditions": "80 °C, 50 mM MES-NaOH pH 6.5, 10 mM MgCl2"}, "purified protein [12]": {"substrate": "O=C[C@H](O)[C@H](O)COP(=O)(O)O", "experiment": "purified protein", "conditions": "80 °C, 50 mM MES-NaOH pH 6.5, 10 mM MgCl2"}, "[13]": {"conditions": "50 mM MES-NaOH pH 7.0, 10 mM MgCl2"}, "[14]": {"conditions": "50 mM MES-NaOH pH 6.5, 10 mM MgCl2"}}}
{"molecule": "C[C@H](N)C(=O)O", "note": "[L-alanine]", "values": [{"measurement": "glycine formation, HPLC", "setting": "TK1094 protein", "value": "In the case of the TK1094 protein, activity was observed with L-alanine and L-glutamate"}, {"measurement": "glycine formation, HPLC", "setting": "TK0186 protein", "value": "the most preferred amino donor was L-alanine (Fig. 3E)"}]}
{"molecule": "B1", "values": [{"measurement": "Km", "setting": "purified protein [1]", "value": "440 ± 60", "unit": "µM"}, {"measurement": "kcat", "setting": "purified protein [1]", "value": "0.105 ± 0.003", "unit": "s⁻¹"}, {"measurement": "kcat/Km", "setting": "purified protein [1]", "value": 240, "unit": "M⁻¹ s⁻¹"}, {"measurement": "Km", "setting": "purified protein [2]", "value": "310 ± 70", "unit": "µM"}, {"measurement": "kcat", "setting": "purified protein [2]", "value": "3130 ± 462", "unit": "s⁻¹"}, {"measurement": "kcat/Km", "setting": "purified protein [2]", "value": "1e+07", "unit": "M⁻¹ s⁻¹"}, {"measurement": "Km", "setting": "purified protein [3]", "value": "440 ± 60", "unit": "µM"}, {"measurement": "kcat", "setting": "purified protein [3]", "value": "0.213 ± 0.005", "unit": "s⁻¹"}, {"measurement": "kcat/Km", "setting": "purified protein [3]", "value": 490, "unit": "M⁻¹ s⁻¹"}, {"measurement": "Km", "setting": "purified protein [4]", "value": "1490 ± 800", "unit": "µM"}, {"measurement": "kcat", "setting": "purified protein [4]", "value": "2030 ± 92", "unit": "s⁻¹"}, {"measurement": "kcat/Km", "setting": "purified protein [4]", "value": "1.36e+06", "unit": "M⁻¹ s⁻¹"}]}
{"molecule": "B2", "values": [{"measurement": "Km", "setting": "purified protein [5]; [13]", "value": "1750 ± 220", "unit": "µM"}, {"measurement": "kcat", "setting": "purified protein [5]; [13]", "value": "65.6 ± 2.5", "unit": "s⁻¹"}, {"measurement": "kcat/Km", "setting": "purified protein [5]; [13]", "value": 37500, "unit": "M⁻¹ s⁻¹"}]}
{"molecule": "B3", "values": [{"measurement": "Km", "setting": "purified protein [6]", "value": "6890 ± 810", "unit": "µM"}, {"measurement": "kcat", "setting": "purified protein [6]", "value": "12.4 ± 0.6", "unit": "s⁻¹"}, {"measurement": "kcat/Km", "setting": "purified protein [6]", "value": 1780, "unit": "M⁻¹ s⁻¹"}, {"measurement": "Km", "setting": "purified protein [7]", "value": "1900 ± 440", "unit": "µM"}, {"measurement": "kcat", "setting": "purified protein [7]", "value": "15.9 ± 2.2", "unit": "s⁻¹"}, {"measurement": "kcat/Km", "setting": "purified protein [7]", "value": 8370, "unit": "M⁻¹ s⁻¹"}, {"measurement": "Km", "setting": "purified protein [8]", "value": "1440 ± 90", "unit": "µM"}, {"measurement": "kcat", "setting": "purified protein [8]", "value": "14 ± 0.3", "unit": "s⁻¹"}, {"measurement": "kcat/Km", "setting": "purified protein [8]", "value": 9720, "unit": "M⁻¹ s⁻¹"}, {"measurement": "Km", "setting": "purified protein [9]", "value": "1930 ± 250", "unit": "µM"}, {"measurement": "kcat", "setting": "purified protein [9]", "value": "18.3 ± 2.2", "unit": "s⁻¹"}, {"measurement": "kcat/Km", "setting": "purified protein [9]", "value": 9480, "unit": "M⁻¹ s⁻¹"}, {"measurement": "Km", "setting": "purified protein [1]", "value": "9900 ± 1150", "unit": "µM"}, {"measurement": "kcat", "setting": "purified protein [1]", "value": "0.324 ± 0.013", "unit": "s⁻¹"}, {"measurement": "kcat/Km", "setting": "purified protein [1]", "value": 32.7, "unit": "M⁻¹ s⁻¹"}, {"measurement": "Km", "setting": "purified protein [2]", "value": "3730 ± 250", "unit": "µM"}, {"measurement": "kcat", "setting": "purified protein [2]", "value": "104 ± 3", "unit": "s⁻¹"}, {"measurement": "kcat/Km", "setting": "purified protein [2]", "value": 27900, "unit": "M⁻¹ s⁻¹"}, {"measurement": "Km", "setting": "purified protein [3]", "value": "24100 ± 1260", "unit": "µM"}, {"measurement": "kcat", "setting": "purified protein [3]", "value": "0.376 ± 0.009", "unit": "s⁻¹"}, {"measurement": "kcat/Km", "setting": "purified protein [3]", "value": 15.6, "unit": "M⁻¹ s⁻¹"}, {"measurement": "Km", "setting": "purified protein [4]", "value": "2870 ± 390", "unit": "µM"}, {"measurement": "kcat", "setting": "purified protein [4]", "value": "186 ± 2", "unit": "s⁻¹"}, {"measurement": "kcat/Km", "setting": "purified protein [4]", "value": 64800, "unit": "M⁻¹ s⁻¹"}]}
{"molecule": "B4", "values": [{"measurement": "Km", "setting": "purified protein [10]", "value": "979 ± 157", "unit": "µM"}, {"measurement": "kcat", "setting": "purified protein [10]", "value": "16.3 ± 0.5", "unit": "s⁻¹"}, {"measurement": "kcat/Km", "setting": "purified protein [10]", "value": 16600, "unit": "M⁻¹ s⁻¹"}, {"measurement": "Km", "setting": "purified protein [11]", "value": "238 ± 44", "unit": "µM"}, {"measurement": "kcat", "setting": "purified protein [11]", "value": "30.1 ± 1.3", "unit": "s⁻¹"}, {"measurement": "kcat/Km", "setting": "purified protein [11]", "value": 126000, "unit": "M⁻¹ s⁻¹"}, {"measurement": "Km", "setting": "purified protein [5]; [14]", "value": "1220 ± 90", "unit": "µM"}, {"measurement": "kcat", "setting": "purified protein [5]; [14]", "value": "21.2 ± 0.4", "unit": "s⁻¹"}, {"measurement": "kcat/Km", "setting": "purified protein [5]; [14]", "value": 17400, "unit": "M⁻¹ s⁻¹"}, {"measurement": "Km", "setting": "purified protein [12]", "value": "1250 ± 280", "unit": "µM"}, {"measurement": "kcat", "setting": "purified protein [12]", "value": "17.1 ± 1", "unit": "s⁻¹"}, {"measurement": "kcat/Km", "setting": "purified protein [12]", "value": 13700, "unit": "M⁻¹ s⁻¹"}]}
